Article doi:10.1101/2023.03.09.531992 (bioRxiv, 2023)

Assays:
[1] = biological target: T1, S. cerevisiae β’WD40 domain (N-terminal WD40 domain of β’-COPI), wild type (S. cerevisiae, UniProt P41811 1-300); assay: crystal structure
T1 sequence: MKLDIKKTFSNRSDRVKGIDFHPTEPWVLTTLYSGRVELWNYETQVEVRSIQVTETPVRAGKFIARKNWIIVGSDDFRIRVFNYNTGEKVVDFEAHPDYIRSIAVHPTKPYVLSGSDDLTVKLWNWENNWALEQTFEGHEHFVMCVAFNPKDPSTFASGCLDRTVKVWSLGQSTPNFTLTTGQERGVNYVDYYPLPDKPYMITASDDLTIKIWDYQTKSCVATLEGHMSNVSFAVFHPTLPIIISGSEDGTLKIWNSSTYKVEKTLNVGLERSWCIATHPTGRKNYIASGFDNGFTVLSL

[2] = biological target: T2, S. pombe αWD40 domain (N-terminal WD40 domain of α-COPI), wild type (S. pombe, UniProt Q96WV5 1-327); assay: NMR titration
T2 sequence: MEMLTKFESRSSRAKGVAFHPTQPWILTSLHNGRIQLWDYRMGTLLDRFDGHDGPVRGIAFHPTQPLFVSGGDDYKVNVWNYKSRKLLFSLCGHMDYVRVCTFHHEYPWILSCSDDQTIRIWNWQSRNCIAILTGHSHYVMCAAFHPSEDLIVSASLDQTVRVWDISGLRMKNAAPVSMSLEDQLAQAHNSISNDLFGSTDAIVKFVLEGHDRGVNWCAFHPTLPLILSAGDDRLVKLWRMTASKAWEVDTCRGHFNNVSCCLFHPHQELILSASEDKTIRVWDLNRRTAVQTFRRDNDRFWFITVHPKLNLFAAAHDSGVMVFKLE

B1: wild-type SARS-CoV-2 S tail heptapeptide (residues 1267-1273), as co-crystallised (peptide)
peptide: GVKLHYT
- binding result [1]: binds

B2: 15N-labeled wild-type SARS-CoV-2 S C-terminal tail 21-mer peptide (NMR) (peptide)
peptide: not shown
modifications: 15N isotope label
- binding result [2]: binds
